We go through one molecule from article PMC11853100 (2025).

In the test the target is T1, Pneumolysin (Ply) (Streptococcus pneumoniae, UniProt Q04IN8).
T1 chain: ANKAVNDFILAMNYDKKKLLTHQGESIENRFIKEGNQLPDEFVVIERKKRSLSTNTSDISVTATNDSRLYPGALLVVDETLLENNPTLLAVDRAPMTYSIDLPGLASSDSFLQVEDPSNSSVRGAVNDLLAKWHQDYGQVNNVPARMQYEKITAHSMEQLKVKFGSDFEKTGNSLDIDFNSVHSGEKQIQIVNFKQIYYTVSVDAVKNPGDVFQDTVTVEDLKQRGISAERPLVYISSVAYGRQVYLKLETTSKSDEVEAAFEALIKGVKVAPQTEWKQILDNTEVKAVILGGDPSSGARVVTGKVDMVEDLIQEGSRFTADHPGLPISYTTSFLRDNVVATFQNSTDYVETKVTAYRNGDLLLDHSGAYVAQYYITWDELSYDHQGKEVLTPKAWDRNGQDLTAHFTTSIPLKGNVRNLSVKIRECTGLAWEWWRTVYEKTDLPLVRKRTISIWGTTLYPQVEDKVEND
The test is described as follows: ITC; given as Ka.

B1: SpnPrsA (protein)
chain: CSKGSEGADLISMKGDVITEHQFYEQVKNNPSAQQVLLNMTIQKVFEKQYGSELDDKEVDDTIAEEKKQYGENYQRVLSQAGMTLETRKAQIRTSKLVELAVKKVAEAELTDEAYKKAFDEYTPDVTAQIIRLNNEDKAKEVLEKAKAEGADFAQLAKDNSTDEKTKENGGEITFDSASTEVPEQVKKAAFALDVDGVSDVITATGTQAYSSQYYIVKLTKKTEKSSNIDDYKEKLKTVILTQKQNDSTFVQSIIGKELQAANIKVKDQAFQNIFTQYIGGGDSSSSSSTSNE
The molecule B1 came in with a Kd of 119 nM.
